# Data: article PMC6451097, “YB-1, an abundant core mRNA-binding protein, has the capacity to form an RNA nucleoprotein filament: a structural analysis”
# Columns and labels:
# YB-1 CSD = YB-1 CSD (Homo sapiens, UniProt P67809 52-129); assay: NMR HSQC; 1:1; EMSA: 20 mM Hepes pH 7.5, 40 mM KCl, room temp, 5 min (SSB: 20 mM Tris-HCl pH 7.6, 300 mM KCl, 37 C, 15 min); NMR: 100 uM protein, 1:1 oligo, 298 K (RNA 298 and 303 K), NMR buffer not in material; details: protein: recombinant
# YB-1C = YB-1C (Homo sapiens, UniProt P67809 1-180); assay: NMR HSQC; 1:1; monomer; EMSA: 20 mM Hepes pH 7.5, 40 mM KCl, room temp, 5 min (SSB: 20 mM Tris-HCl pH 7.6, 300 mM KCl, 37 C, 15 min); NMR: 100 uM protein, 1:1 oligo, 298 K (RNA 298 and 303 K), NMR buffer not in material; details: protein: recombinant; tags: His-tag (pET22b); untagged version also used
# YB-1C, sequence (P67809 1-180): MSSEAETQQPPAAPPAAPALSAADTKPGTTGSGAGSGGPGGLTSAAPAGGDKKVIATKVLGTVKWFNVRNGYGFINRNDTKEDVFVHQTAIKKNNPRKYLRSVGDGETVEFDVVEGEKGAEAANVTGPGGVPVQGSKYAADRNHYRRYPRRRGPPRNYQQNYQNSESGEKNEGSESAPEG
# YB-1 CSD, sequence (P67809 52-129): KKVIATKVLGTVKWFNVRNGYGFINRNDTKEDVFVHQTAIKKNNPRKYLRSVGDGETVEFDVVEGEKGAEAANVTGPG
binder,measurement,setting,value
CCCCCCCCCC (ssDNA) [dC10],binding result,YB-1 CSD,binds
same,binding result,YB-1C,binds
